Source: publication PMC11381335, “Unraveling the structure and function of a novel SegC protein interacting with the SegAB chromosome segregation complex in Archaea” (Nucleic Acids Research, 2024)

Biological target: T1, SegC1-155 (UniProt Q981B4 1-155, del156-165)
T1 sequence: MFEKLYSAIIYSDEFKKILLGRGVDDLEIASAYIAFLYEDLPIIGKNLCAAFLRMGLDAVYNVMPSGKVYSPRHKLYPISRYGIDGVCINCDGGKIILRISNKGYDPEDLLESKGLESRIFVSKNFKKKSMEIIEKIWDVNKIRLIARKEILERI
Experiment: fluorescence polarization; FP: 20 mM Tris-HCl pH 7.5, 100 mM NaCl, 2 mM MgCl2, 5 nM Cy3-DNA, room temperature; EMSA: same buffer, 10 nM Cy3-DNA, 37 C 30 min, 4-12% TBE gel
Settings: protein: recombinant; tags: C-terminal His6; label: 5' Cy3; 20 bp paired with 3' overhang 1 nt at each end (from printed strands)

B1: 21-bp site 1 (S1) dsDNA (dsDNA)
DNA 1: ACGTAGAAGAGTCTAGACTGA
DNA 2: CAGTCTAGACTCTTCTACGTA
B1: no binding.
